These results are taken from patent publication US20080085863A1 (WISCONSIN ALUMNI RESEARCH FOUNDATION, published 2008).

Data set [1] has as its target T1, recombinant mutant α2-macroglobulin with the native bait region replaced by sequences flanking the human probiglycan BMP-1 cleavage site (b-α2M).
T1 chain: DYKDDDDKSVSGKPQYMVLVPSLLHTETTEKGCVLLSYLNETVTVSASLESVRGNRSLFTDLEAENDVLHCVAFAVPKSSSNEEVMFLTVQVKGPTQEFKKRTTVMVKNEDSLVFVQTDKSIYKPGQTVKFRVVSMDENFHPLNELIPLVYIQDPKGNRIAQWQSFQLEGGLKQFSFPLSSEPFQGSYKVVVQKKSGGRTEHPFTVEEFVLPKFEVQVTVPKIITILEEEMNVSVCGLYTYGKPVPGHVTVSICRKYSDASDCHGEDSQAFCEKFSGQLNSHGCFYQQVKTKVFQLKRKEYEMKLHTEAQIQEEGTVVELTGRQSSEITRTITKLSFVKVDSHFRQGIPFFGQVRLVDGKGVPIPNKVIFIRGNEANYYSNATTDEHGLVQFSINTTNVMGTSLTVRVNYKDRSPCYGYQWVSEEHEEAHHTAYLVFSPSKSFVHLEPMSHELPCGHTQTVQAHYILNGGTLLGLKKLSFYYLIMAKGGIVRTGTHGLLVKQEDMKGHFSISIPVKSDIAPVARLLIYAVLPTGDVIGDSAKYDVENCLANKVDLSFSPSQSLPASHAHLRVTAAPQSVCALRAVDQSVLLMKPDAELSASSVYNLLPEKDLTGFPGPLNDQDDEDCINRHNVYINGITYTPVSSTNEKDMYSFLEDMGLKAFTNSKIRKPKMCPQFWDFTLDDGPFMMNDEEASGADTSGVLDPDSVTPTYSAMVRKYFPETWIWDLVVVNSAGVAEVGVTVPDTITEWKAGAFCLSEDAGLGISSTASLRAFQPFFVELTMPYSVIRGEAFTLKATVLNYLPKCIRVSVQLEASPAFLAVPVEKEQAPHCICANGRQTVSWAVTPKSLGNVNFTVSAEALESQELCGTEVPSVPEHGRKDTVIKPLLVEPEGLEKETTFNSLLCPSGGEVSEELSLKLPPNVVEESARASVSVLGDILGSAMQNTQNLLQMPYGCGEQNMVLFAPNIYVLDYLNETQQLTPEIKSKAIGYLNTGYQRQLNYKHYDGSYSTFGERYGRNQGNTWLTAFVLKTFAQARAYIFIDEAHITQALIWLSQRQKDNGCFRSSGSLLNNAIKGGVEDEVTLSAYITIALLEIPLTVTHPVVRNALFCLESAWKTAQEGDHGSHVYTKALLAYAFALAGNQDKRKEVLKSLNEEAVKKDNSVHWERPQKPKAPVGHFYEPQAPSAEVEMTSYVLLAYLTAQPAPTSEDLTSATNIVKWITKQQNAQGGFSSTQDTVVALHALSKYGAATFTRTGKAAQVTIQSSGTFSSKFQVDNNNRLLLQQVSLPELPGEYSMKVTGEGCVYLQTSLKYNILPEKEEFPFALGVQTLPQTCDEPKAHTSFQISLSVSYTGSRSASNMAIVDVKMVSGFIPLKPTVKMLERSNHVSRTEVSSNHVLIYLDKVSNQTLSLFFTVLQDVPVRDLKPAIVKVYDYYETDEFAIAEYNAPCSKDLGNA
Put plainly: 2 hour co-incubation of 40 nM 35S-BMP-1 with 40 nM α2M, SDS-PAGE autofluorogram.

Data set [2] addresses T2, human α2-macroglobulin from plasma (Sigma-Aldrich).
T2 chain: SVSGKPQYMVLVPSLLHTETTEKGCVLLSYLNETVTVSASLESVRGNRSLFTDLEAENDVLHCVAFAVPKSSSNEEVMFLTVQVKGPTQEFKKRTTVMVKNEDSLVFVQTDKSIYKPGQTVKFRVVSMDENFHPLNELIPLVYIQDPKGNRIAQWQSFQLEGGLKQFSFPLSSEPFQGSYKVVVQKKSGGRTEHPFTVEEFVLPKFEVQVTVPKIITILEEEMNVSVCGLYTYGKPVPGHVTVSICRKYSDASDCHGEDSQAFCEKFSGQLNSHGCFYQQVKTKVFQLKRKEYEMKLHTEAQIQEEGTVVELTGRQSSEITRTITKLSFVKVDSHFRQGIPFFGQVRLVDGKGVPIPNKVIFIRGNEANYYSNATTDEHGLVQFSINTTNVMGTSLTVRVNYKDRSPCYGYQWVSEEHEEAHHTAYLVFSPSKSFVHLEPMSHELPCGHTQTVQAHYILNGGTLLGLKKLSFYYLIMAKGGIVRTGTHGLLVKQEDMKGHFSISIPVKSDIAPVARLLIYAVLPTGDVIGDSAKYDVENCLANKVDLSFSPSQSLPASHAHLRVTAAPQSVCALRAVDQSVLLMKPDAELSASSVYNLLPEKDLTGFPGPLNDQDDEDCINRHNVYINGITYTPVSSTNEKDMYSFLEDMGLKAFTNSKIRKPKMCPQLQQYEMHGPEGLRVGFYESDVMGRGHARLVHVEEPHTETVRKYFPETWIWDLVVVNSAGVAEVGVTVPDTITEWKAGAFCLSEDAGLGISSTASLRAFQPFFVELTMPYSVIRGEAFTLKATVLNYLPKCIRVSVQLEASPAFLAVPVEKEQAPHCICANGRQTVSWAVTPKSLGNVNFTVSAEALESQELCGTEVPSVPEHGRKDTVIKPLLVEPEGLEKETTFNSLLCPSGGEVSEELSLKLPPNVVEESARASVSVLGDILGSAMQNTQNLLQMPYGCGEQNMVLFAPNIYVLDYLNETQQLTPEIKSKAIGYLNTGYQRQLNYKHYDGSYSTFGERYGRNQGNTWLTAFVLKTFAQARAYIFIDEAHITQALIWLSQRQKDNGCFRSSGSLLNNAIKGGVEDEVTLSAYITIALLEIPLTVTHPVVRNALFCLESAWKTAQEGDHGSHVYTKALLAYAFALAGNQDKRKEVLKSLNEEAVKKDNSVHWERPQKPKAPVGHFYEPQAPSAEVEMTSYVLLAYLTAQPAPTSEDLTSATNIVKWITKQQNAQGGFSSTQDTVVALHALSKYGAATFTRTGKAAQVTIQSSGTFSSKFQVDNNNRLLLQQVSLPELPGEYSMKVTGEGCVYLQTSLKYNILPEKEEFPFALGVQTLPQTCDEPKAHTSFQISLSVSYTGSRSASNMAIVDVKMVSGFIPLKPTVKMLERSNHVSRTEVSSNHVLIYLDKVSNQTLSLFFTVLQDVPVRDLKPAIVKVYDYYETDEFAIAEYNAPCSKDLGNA
The description is as above.

Data set [3] addresses T3, recombinant wild type α2-macroglobulin (FLAG-tagged).
T3 chain: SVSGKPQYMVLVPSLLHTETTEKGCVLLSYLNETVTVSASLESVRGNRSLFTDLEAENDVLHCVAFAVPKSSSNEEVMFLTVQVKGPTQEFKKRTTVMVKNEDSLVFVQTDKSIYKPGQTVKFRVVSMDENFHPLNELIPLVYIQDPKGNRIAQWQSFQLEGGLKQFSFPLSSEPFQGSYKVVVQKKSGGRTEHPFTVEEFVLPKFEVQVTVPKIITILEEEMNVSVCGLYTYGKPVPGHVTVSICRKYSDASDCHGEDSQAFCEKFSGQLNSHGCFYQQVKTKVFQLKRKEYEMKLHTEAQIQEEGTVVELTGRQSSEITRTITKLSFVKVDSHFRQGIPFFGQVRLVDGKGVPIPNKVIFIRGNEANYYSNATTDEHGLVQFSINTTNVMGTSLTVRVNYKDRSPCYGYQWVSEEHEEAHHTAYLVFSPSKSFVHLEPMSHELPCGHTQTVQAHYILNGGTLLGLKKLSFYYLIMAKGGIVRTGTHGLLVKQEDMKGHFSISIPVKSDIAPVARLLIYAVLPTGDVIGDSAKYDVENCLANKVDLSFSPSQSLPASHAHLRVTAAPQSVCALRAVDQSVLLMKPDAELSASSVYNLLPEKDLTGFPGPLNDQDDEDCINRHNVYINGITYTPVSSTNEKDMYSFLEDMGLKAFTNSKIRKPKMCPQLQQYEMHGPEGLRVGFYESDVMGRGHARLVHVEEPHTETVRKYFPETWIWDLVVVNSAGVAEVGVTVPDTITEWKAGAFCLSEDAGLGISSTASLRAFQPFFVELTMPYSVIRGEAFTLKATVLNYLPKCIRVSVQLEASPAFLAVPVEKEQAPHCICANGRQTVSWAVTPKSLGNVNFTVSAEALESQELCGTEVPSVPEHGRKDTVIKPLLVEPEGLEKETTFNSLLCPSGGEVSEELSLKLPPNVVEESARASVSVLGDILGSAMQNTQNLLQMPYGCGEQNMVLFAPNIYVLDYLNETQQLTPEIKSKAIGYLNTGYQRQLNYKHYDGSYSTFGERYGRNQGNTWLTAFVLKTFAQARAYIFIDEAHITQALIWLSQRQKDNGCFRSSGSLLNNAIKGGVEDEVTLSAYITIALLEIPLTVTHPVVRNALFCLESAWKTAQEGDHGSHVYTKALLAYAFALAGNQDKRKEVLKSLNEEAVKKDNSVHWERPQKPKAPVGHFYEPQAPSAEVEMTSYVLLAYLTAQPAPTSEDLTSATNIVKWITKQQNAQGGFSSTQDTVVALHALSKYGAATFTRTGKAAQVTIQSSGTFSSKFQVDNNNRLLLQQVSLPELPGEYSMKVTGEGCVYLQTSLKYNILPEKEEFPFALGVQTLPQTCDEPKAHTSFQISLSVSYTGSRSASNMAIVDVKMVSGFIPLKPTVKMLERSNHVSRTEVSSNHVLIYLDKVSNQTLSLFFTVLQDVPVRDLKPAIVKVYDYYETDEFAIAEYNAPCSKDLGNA
The data set is described as above.

Data set [4] concerns the target T1, recombinant mutant α2-macroglobulin ….
Data set [5] has as its target T4, methylamine-treated human α2-macroglobulin.
T4 chain: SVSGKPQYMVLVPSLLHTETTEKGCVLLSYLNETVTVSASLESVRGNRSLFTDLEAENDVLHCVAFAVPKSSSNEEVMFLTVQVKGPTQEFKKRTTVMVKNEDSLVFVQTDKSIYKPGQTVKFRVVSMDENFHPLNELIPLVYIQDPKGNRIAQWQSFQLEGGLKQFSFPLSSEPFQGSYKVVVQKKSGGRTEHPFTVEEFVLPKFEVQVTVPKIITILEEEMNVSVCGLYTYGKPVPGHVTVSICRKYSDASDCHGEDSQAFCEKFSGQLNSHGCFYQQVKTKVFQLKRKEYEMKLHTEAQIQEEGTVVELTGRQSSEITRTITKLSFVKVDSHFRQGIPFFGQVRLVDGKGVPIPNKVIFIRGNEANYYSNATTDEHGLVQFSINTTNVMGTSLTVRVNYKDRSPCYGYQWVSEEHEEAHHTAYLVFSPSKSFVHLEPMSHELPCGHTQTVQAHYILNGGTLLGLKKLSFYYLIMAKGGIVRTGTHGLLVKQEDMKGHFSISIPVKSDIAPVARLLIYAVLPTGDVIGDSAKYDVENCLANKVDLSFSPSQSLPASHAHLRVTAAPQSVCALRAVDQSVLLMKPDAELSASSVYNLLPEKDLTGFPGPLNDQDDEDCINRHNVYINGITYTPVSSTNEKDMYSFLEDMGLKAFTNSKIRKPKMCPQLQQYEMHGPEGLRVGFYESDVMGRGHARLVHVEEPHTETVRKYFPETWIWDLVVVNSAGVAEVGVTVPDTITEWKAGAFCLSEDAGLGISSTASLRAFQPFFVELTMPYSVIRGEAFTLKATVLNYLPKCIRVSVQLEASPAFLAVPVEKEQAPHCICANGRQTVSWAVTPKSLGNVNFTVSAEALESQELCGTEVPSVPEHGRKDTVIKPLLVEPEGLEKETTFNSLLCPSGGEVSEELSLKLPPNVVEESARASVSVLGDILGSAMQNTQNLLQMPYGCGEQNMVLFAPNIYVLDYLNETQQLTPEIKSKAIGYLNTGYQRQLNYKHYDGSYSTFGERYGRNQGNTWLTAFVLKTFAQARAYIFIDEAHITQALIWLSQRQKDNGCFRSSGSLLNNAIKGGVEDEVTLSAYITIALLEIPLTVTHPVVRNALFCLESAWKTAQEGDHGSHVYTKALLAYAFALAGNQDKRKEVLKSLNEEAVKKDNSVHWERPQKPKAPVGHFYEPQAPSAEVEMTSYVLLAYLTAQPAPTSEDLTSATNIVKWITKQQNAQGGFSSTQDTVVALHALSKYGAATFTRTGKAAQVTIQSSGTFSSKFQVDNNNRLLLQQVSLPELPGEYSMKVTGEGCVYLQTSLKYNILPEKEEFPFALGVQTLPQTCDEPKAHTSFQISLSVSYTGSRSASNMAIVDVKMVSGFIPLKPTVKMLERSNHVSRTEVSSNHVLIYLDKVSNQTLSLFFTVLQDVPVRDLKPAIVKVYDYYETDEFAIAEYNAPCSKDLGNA

B1: Flag-tagged recombinant bone morphogenetic protein-1 (BMP-1) (protein)
chain: AATSRPERVWPDGVIPFVIGGNFTGSQRAVFRQAMRHWEKHTCVTFLERTDEDSYIVFTYRPCGCCSYVGRRGGGPQAISIGKNCDKFGIVVHELGHVVGFWHEHTRPDRDRHVSIVRENIQPGQEYNFLKMEPQEVESLGETYDFDSIMHYARNTFSRGIFLDTIVPKYEVNGVKPPIGQRTRLSKGDIAQARKLYKCPACGETLQDSTGNFSSPEYPNGYSAHMHCVWRISVTPGEKIILNFTSLDLYRSRLCWYDYVEVRDGFWRKAPLRGRFCGSKLPEPIVSTDSRLWVEFRSSSNWVGKGFFAVYEAICGGDVKKDYGHIQSPNYPDDYRPSKVCIWRIQVSEGFHVGLTFQSFEIERHDSCAYDYLEVRDGHSESSTLIGRYCGYEKPDDIKSTSSRLWLKFVSDGSINKAGFAVNFFKEVDECSRPNRGGCEQRCLNTLGSYKCSCDPGYELAPDKRRCEAACGGFLTKLNGSITSPGWPKEYPPNKNCIWQLVAPTQYRISLQFDFFETEGNDVCKYDFVEVRSGLTADSKLHGKFCGSEKPEVITSQYNNMRVEFKSDNTVSKKGFKAHFFSEKRPALQPPRGRPHQLKFRVQKRNRTPQ
Turning to B1, the “percent of BMP-1 incorporated into complexes” value in data set [1] is on record as 42% of sample; in data set [2], 28% of sample; in data set [3], 12% of sample. Moreover, the “cleavage of α2M by BMP-1 (Western blot, time course)” value in data set [4] is “b-α2M is cleaved by BMP-1 more readily than recombinant wild-type α2M (rα2M)”. Moreover, the “cleavage of α2M by BMP-1 (SDS-PAGE)” value in data set [5] was “BMP-1 was unable to cleave methylamine-treated α2M”.
